This passage reports EC50 results from US20240117061A1 (WUHAN YZY BIOPHARMA, published 2024).

The term EC50 denotes the concentration needed to bring the measured effect to its halfway point.

Assay [1] deals with T1, recombinant human BCMA-huFc fusion protein (human).
T1 construct: also called huBCMA-huFc
The assay can be described thus: indirect ELISA, coated antigen. How it is done: (§1) Procedures: Human, mouse and monkey BCMA antigens were prepared into 0.5 μg/mL coating solutions with PBS buffer. The coating solutions were added to a microplate at 100 μL/well and incubated at 4° C. overnight. The residual coating solution was discarded before 3% BSA was added at 300 μL/well, and the plate was blocked for 3 h at room temperature. The microplate was washed once with PBST (PBS containing 0.1% of TWEEN 20) at 300 μL/well. The three mouse BCMA antibodies were serially 3-fold diluted from 10 μg/mL to the 7th concentration. The dilutions were added to the microplate at 100 μL/well. After a 1-h incubation at room temperature, the microplate was washed thrice with PBST at 300 μL/well. The HRP goat anti-mouse IgG antibody was 25,000-fold diluted with 1% BSA-PBST and added at 100 μL/well. After another 1-h incubation at room temperature, the microplate was washed thrice with PBST at 300 μL/well and dried. The TMB chromogenic solution was added at 100 μL/well. After a 5-min reaction at room temperature, 2 M H₂SO₄ was added at 100 μL/well to terminate the reaction. The microplate was placed on a microplate reader (Molecular Devices, SPECTRA Max plus 384) and the absorbance OD450 value was read at 450 nm wavelength.
In general terms: ELISA stands for enzyme-linked immunosorbent assay.

Assay [2] deals with T2, recombinant cynomolgus monkey BCMA-huFc (cynomolgus monkey; human).
T2 construct: also called cynoBCMA-huFc
T2 sequence (chain, as listed by the source limits assumed): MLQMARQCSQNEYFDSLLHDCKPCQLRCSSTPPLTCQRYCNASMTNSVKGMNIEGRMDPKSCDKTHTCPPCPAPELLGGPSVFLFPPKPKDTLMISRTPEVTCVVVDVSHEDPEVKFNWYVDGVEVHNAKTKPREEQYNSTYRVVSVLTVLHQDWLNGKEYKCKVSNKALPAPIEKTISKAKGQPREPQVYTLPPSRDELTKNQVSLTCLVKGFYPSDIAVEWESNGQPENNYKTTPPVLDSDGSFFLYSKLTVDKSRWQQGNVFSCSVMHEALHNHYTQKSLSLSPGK
The assay can be described thus: indirect ELISA, coated antigen. The method, then:
as §1

Assay [3] deals with T3, human BCMA on cells (NCI-H929, U266B1, HEK293 huBCMA) (human, UniProt Q02223 1-184).
T3 construct: whole, on cells; also called cell surface BCMA antigen
T3 sequence (looked up): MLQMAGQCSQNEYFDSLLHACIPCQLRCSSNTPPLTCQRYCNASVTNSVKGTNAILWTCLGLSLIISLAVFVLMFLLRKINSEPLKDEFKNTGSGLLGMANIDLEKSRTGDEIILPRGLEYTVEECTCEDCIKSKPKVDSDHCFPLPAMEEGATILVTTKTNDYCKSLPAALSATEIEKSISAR
The assay can be described thus: flow cytometry on U266B1 cells. The method, then: (§2) The affinities of the 3 mouse antibodies for cell surface BCMA antigen were assessed using FACS. Materials: cell lines NCI-H929, U266B1, HEK293 cynoBCMA and HEK293; PBS buffer; FBS (fetal bovine serum; Gibco, 10099141); PE goat anti-mouse IgG Fc (Biolegend, 405307). Procedures: The cells were resuspended in PBS to prepare cell suspensions containing 200,000 cells. Mouse BCMA antibodies were added to a 96-well plate at 50 μL/well and serially 3-fold diluted from 3000 nM. The plate was incubated for 1 h at 4° C. 150 μL of precooled PBS containing 1% of FBS was added into the 96-well plate after the co-incubation with the primary antibody was finished. The mixtures were centrifuged at 300×g for 5 min and the supernatants were discarded. The above procedures were repeated once. The fluorescent secondary antibody PE goat anti-mouse IgG Fc was added at 80 μL/well. The plate was incubated at 4° C. for 30 min. 150 μL of precooled PBS containing 1% of FBS was added into the 96-well plate after the co-incubation with the secondary antibody was finished. The mixtures were uniformly mixed with a pipette. The 96-well plate was centrifuged at 300×g for 5 min in a plate centrifuge and the supernatants were discarded. The above procedures were repeated once. The cells were resuspended in 100 μL of PBS containing 1% of FBS and detected on a flow cytometry (BD Accuri™ C6).
In general terms: A flow cytometer gives signals particle by particle.

The target of assay [4] is T3, human BCMA on cells (NCI-H929, U266B1, …). Kind of assay: flow cytometry on NCI-H929 cells. How it is done:
as §2

In assay [5] the target is T4, cynomolgus monkey BCMA on HEK293 cynoBCMA cells (cynomolgus monkey, UniProt A0A2K5UD97 1-183).
T4 construct: whole, on cells
T4 sequence (A0A2K5UD97 entry or part of it): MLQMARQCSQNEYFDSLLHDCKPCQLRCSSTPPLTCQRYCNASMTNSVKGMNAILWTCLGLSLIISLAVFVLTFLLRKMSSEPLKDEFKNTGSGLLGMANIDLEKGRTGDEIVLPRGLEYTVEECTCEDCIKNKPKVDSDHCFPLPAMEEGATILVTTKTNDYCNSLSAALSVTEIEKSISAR
Kind of assay: flow cytometry on HEK293 cynoBCMA cells; HEK293 cynoBCMA cells. How it is done: as §2

B1: mouse monoclonal antibody 211B11H10G5 (antibody, V domains shown)
VH: EVQLQQSGPELVKPGASVKILCKASGYTITDYNMDWVKRSHGKSLEWIGNINPHNGGSIYNQKFKGKATLTVDKSSSTAFMELRSLTSEDTAVYYCARGDATLVLDYWGQGTSLTVSS
VL: DIVLTQSPASLAVSLGQRATISCRASKSVSTSGLSYMHWYQQKPGQPPKVLIYLASNLESGVPARFSGSGSGTDFTLNIHPVEEEDAATYYCQHSRELPPTFGAGTKLELK
notes: detected with anti-mouse IgG; also called Clone 211B11H10G5; BCMA-HC3/BCMA-LC3
In the case of B1, the concentration for a half-maximal effect (EC50) in assay [1] worked out at 0.0492 nM; in assay [2] it was 0.0309 nM; in assay [3], 24.5 nM; in assay [4], 11.9 nM; in assay [5], 30.9 nM.
